Experimental data published in paper doi:10.1101/2025.11.18.25340499 (medRxiv, 2025).
Values belong to the binder of their own block, whether it stands above or below them.

Key:
[1] = molecular target: T1, MuSK Bait (Homo sapiens (species of MuSK not …, UniProt O15146)); assay: SPR
[2] = molecular target: T1, MuSK Bait; assay: AlphaScreen or HTRF

B1: 13-3B5 (antibody, V domains shown)
VH: QVQLVQSGAVVAKPGASVQVSCKTSGYTFTGQYLHWVRQAPGQGLEWIGWINPSSGVTKFAEKFEGRATMTRDTSITTAYIDLRSLRSDDTATYYCATLSLGVYYVGMVAWGQGTLVTVSS
VL: SYELTQPPSVSVSPGQTATITCSGDGLAQQHVYWFQQRPGQAPLLIIYKDIERPSGIPERFSGSSSGTTAMLTISGVQAEDEADYYCQSGDRTATSVLFGGGTKMTVL
- binding result [1]: binds

B2: MuSK1A (antibody, V domains shown)
VH: QVQLVQSGAEVKKPGASVKVSCKTSGYTFNNYDINWVRQAAGQGLEWMGWMNPYSGNTGYAQKFQGRVTMTRNISITTVYMELSSLRSEDTAVYYCAREVRGDTGYGGGSDYWGQGTLVTVSS
VL: SYELTQPPSVSLSPGQTATITCSGDKLDDNYVCWYQQKPGQSPVLVIYQDTMRPSGIPERFSGSNSGNIATLTISGTQAVDEADYYCQAWDGSTVVFGGGTRLTVL
- binding result [2]: binds

More lines, now with the values ahead:

- binding result [2]: binds
B3: 11-3F6 (antibody, V domains shown)
VH: EVQLVESGGGLVKPGGSLRLSCAASGFTFSSYTMDWVRQAPGKGLEWVSSIGSNGDYIYYADSVRGRFTISRDNAKNSLYLQMNSLRPDDTADYYCARGQLAVAGTHFDYWGRGSLVTVSS
VL: DIQMTQSPSSLSASVGDRVTISCRASQKVNKYVNWYQQTPGKAPRLLIYAASTLQSGVPSRFSGSGSGANFTLTISGLQPEDFAIYFCQQSYSPLCTFGQGTKLEIK

- binding result [2]: binds
B4: MuSK1B (antibody, V domains shown)
VH: EVQLVEWGAGLLKPSETLSLTCAVYGGSFSGDYWWTWIRQPPGKGLEWIGEIDHTGNTNYNPSLKSRLTLSVDMSKNHFSLKLTSVTAADTALYFCARQEGLGYYDSWGQGTLVTVSS
VL: SYELTQSPSVSVSPGQTANITCSGDKLGDRYASWYQQKPAQSPVLVIYQDDRRPSGIPERFSGSNSGNTATLTISGTQGMDEADYYCQAWDGTTVFGGGTKLTVL
